According to publication doi:10.1101/2022.01.19.477021, “The Intrinsically Disordered Region of Coronins Fine-tunes Oligomerization and Actin Polymerization” (bioRxiv, 2022):
“And” between values parts separate entries of the source, which are not always exact repeats. Equal entries are not always repeated.

Columns and labels:
[1] = target: the molecule itself; experiment: AUC; sedimentation velocity; 50 mM Tris pH 8.0, 150 mM NaCl, 20 °C, 30,000 or 45,000 rpm; c(s) and c(s,ff0) models in SEDFIT; samples at 3-9.2 µM
[2] = target: the molecule itself; experiment: SEC + other: negative-stain transmission electron microscopy; Superdex 200 increase 10/30 column in a pH 8 Tris-buffer with 150 mM NaCl; TEM of 1 µM protein in F-buffer
[3] = target: rabbit skeletal muscle actin (RMA), filamentous (F-actin) (rabbit, UniProt P68135 1-377); experiment: co-sedimentation; high-speed actin cosedimentation: a range of concentrations of Crn1 variant with a fixed concentration of pre-polymerized actin filaments in F-buffer, room temperature 30 min, 100,000 x g 20 min at 25°C; bound against free coronin fitted with the Hill equation; details: both partners purified

B1: Crn1-ΔN (IDR and CC domains, aa 401-651) (domain or fragment, S. cerevisiae, UniProt Q06440 401-651, looked up)
chain: RSIYDGSAPSFHEAKRPQQPTTQETALEEKKEQPKVEKPISESEKEVKQEAPKSPSPLKSASSSSTINHVLKEDNSINKLLKKSSDIDQVNNAEDPSRDTSGWEEADDEPAPIKIETPVTPTETKKDRTPKVEPSKELKPEPVSIATDRKQEQSLPQEEKSSEKTKSPEQEKSATPPSSITAAKTAITASSKEEPSAARTSPKSLGLKKSVEKLSTLVLQLEDVVDKLTKANLDKDERLLKLEQKIGELSK
notes: Crn1 (coronin), S. cerevisiae, residues 401-651 (IDR and CC domain); source: E. coli Rosetta (DE3), purified (HisTrap, SEC when necessary)
- stoichiometry N [1]: 4

B2: Crn1-CC (C-terminal coiled-coil domain, aa 605-651) (domain or fragment, S. cerevisiae, UniProt Q06440 605-651, looked up)
chain: LGLKKSVEKLSTLVLQLEDVVDKLTKANLDKDERLLKLEQKIGELSK
notes: Crn1 (coronin), S. cerevisiae, residues 605-651, coiled-coil domain; made by truncating 401-604 from the Crn1-ΔN (401-651) plasmid; The introduction gives the CC domain as aa 600-651; also called CC domain; source: E. coli Rosetta (DE3), purified (HisTrap, SEC when necessary)
- stoichiometry N [1]: ~15

B3: Crn1ΔIDR-S (Crn1 with a short 40-aa middle fragment of the IDR) (natural protein, S. cerevisiae, UniProt Q06440 1-651, looked up)
chain: MSGKFVRASKYRHVFGQAAKKELQYEKLKVTNNAWDSNLLKTNGKFIAVNWNASGGGAFAVIPIEEVGKAPDQVPLFRGHTAQVLDTDFDPFNDHRIASGSDDSKIGIWDIPENYKFHDHVDEDGEPIDIKPVKFLTGHARKVGHVLYHPVAENVLASSSGDYTVKLWNVETGKDMITLKHPDMVTSMSFSYDGNYLATVARDKKLRVWNIREEKIVSEGPAHTGAKNQRVVWLGNSDRLATTGFSKLSDRQIGIWDAFNIEKGDLGGFYTVDQSSGILMPFYDEGNKILYLVGKGDGNIRYYEFQNDELFELSEFQSTEAQRGFAVAPKRMVNVKENEVLKGFKTVVDQRIEPVSFFVPRRSEEFQEDIYPDAPSNKPALTAEEWFSGKSVEGPILVSMSSDIDQVNNAEDPSRDTSGWEEADDEPAPIKIETPVTPTEPKSLGLKKSVEKLSTLVLQLEDVVDKLTKANLDKDERLLKLEQKIGELSK
notes: Crn1 (coronin), S. cerevisiae, residues 1-651 with 401-483 and 524-601 excluded by a two-step truncation of the full-length plasmid; short IDR 484-523 kept; By the stated limits residues 602-604 of the IDR stay in the construct; source: E. coli Rosetta (DE3), purified (HisTrap, SEC when necessary)
- stoichiometry N [1]: 3 and 6

B4: Crn1-ΔIDR (Crn1 lacking the IDR, aa 401-604) (natural protein, S. cerevisiae, UniProt Q06440 1-651, looked up)
chain: MSGKFVRASKYRHVFGQAAKKELQYEKLKVTNNAWDSNLLKTNGKFIAVNWNASGGGAFAVIPIEEVGKAPDQVPLFRGHTAQVLDTDFDPFNDHRIASGSDDSKIGIWDIPENYKFHDHVDEDGEPIDIKPVKFLTGHARKVGHVLYHPVAENVLASSSGDYTVKLWNVETGKDMITLKHPDMVTSMSFSYDGNYLATVARDKKLRVWNIREEKIVSEGPAHTGAKNQRVVWLGNSDRLATTGFSKLSDRQIGIWDAFNIEKGDLGGFYTVDQSSGILMPFYDEGNKILYLVGKGDGNIRYYEFQNDELFELSEFQSTEAQRGFAVAPKRMVNVKENEVLKGFKTVVDQRIEPVSFFVPRRSEEFQEDIYPDAPSNKPALTAEEWFSGKSVEGPILVSMLGLKKSVEKLSTLVLQLEDVVDKLTKANLDKDERLLKLEQKIGELSK
notes: Crn1 (coronin), S. cerevisiae, residues 1-651 with the IDR (401-604) deleted; made from the pSY5-Crn1-FL plasmid; source: E. coli Rosetta (DE3), purified (HisTrap, SEC when necessary)
- binding result [2]: binds

B5: Crn1 full-length (Crn1-FL), recombinant from E. coli (natural protein, S. cerevisiae, UniProt Q06440 1-651, looked up)
chain: MSGKFVRASKYRHVFGQAAKKELQYEKLKVTNNAWDSNLLKTNGKFIAVNWNASGGGAFAVIPIEEVGKAPDQVPLFRGHTAQVLDTDFDPFNDHRIASGSDDSKIGIWDIPENYKFHDHVDEDGEPIDIKPVKFLTGHARKVGHVLYHPVAENVLASSSGDYTVKLWNVETGKDMITLKHPDMVTSMSFSYDGNYLATVARDKKLRVWNIREEKIVSEGPAHTGAKNQRVVWLGNSDRLATTGFSKLSDRQIGIWDAFNIEKGDLGGFYTVDQSSGILMPFYDEGNKILYLVGKGDGNIRYYEFQNDELFELSEFQSTEAQRGFAVAPKRMVNVKENEVLKGFKTVVDQRIEPVSFFVPRRSEEFQEDIYPDAPSNKPALTAEEWFSGKSVEGPILVSMRSIYDGSAPSFHEAKRPQQPTTQETALEEKKEQPKVEKPISESEKEVKQEAPKSPSPLKSASSSSTINHVLKEDNSINKLLKKSSDIDQVNNAEDPSRDTSGWEEADDEPAPIKIETPVTPTETKKDRTPKVEPSKELKPEPVSIATDRKQEQSLPQEEKSSEKTKSPEQEKSATPPSSITAAKTAITASSKEEPSAARTSPKSLGLKKSVEKLSTLVLQLEDVVDKLTKANLDKDERLLKLEQKIGELSK
notes: Crn1 (coronin), S. cerevisiae, residues 1-651; Vector pET-21d(+)(pSY5) adds an 8x histidine tag and an HRV 3C protease site at the N-terminus; cleavage is not described; By AUC-SV a mix of monomers and tetramers; also called WT Crn1; source: E. coli Rosetta (DE3), purified (HisTrap, SEC when necessary)
- stoichiometry N [1]: 4
- Kd [3]: 240 nM

B6: yeast purified full-length Crn1 (yCrn1-FL) (natural protein, S. cerevisiae, UniProt Q06440 1-651, looked up)
chain: B5 chain
notes: Crn1 (coronin), S. cerevisiae, full length; The text says C-terminal 6xHis-tagged, but names the vector as pGAL-ORF-3×StreptagII-9×His; source: S. cerevisiae (strain YMY2043, galactose-induced overexpression), purified (HisTrap)
- stoichiometry N [1]: 4 and 6
